Source: patent US20240317826A1, “COMPOSITIONS AND METHODS FOR TREATING AND/OR I[…] AGENT FOR TREATING HIV-1 INFECTIONS” (priority 2021, published 2024)

Assays:
[1] = target: GST-SAP18 (UniProt O00422); assay: GST pull-down, bound protein quantitated from Western blot (FIG. 15c)
[2] = target: GST-INI1 (UniProt Q12824); assay: as above
[3] = target: GST-CTD (C-terminal domain of HIV-1 integrase, aa 201-288, GST fusion) (HIV-1 (Hx3B)) (UniProt P04585); assay: Alpha; GST-CTD 0.083 uM
[4] = target: GST-CTD (C-terminal domain of HIV-1 integrase, aa 201-288, GST fusion) (HIV-1 (Hx3B)) (UniProt P04585); assay: Alpha; GST-CTD 0.027 uM

Chain of GST-SAP18 (O00422 whole entry): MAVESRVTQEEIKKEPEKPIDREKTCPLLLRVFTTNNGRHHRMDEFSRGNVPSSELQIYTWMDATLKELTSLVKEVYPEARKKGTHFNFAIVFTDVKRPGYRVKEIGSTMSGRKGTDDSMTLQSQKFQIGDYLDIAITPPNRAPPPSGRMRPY

His6-IN(W235E) (enzyme) was tested, and the % binding [1] was 20% and the % binding [2] was < 5%.

“His6-SUMO-INI1183-304 (from UniProt Q12824 183-304)” showed a Kd [3] of 3 nM and a Kd [4] of 3.5 nM.
